According to PMC8989681, “Functional and structural deficiencies of Gemin5 variants associated with neurological disorders” (Life Science Alliance, 2022):

Experiments:
[1] = biological target: 80S ribosomes, P05388;P63244; experiment: sedimentation with native ribosomes (80S fraction), immunoblot quantification; settings: chain shown with the change; HEK293 cells expressing Xpress-tagged G5845-1508 proteins; parent: est. 1.0; read off a plot
[2] = biological target: the molecule itself; experiment: SEC-MALS; 250 ul of purified TPR-like domain at 1-3 mg/ml on Superdex 200 10/300; 20 mM Tris-HCl pH 6.8, 0.2 M NaCl, 5% glycerol, 1 mM DTT; 0.5 ml/min

Binder | other: G5845-1508 intensity 80S/S30 [1] | stoichiometry N [2]
Xpress-G5_(845-1508)-WT, Q8TEQ6 R1016C (protein) ARSLLPLSTSLDHRSKEELHQDCLVLATAKHSRELNEDVSADVEERFHLGLFTDRATLYRMIDIEGKGHLENGHPELFHQLMLWKGDLKGVLQTAAERGELTDNLVAMAPAAGYHVWLWAVEAFAKQLCFQDQYVKAASHLLSIHKVYEAVELLKSNHFYREAIAIAKARLCPEDPVLKDLYLSWGTVLERDGHYAVAAKCYLGATCAYDAAKVLAKKGDAASLRTAAELAAIVGEDELSASLALRCAQELLLANNWVGAQEALQLHESLQGQRLVFCLLELLSRHLEEKQLSEGKSSSSYHTWNTGTEGPFVERVTAVWKSIFSLDTPEQYQEAFQKLQNIKYPSATNNTPAKQLLLHICHDLTLAVLSQQMASWDEAVQALLRAVVRSYDSGSFTIMQEVYSAFLPDGCDHLRDKLGDHQSPATPAFKSLEAFFLYGRLYEFWWSLSRPCPNSSVWVRAGHRTLSVEPSQQLDTASTEETDPETSQPEPNRPSELDLRLTEEGERMLSTFKELFSEKHASLQNSQRTVAEVQETLAEMIRQHQKSQLCKSTANGPDKNEPEVEAEQPLCSSQSQCKEEKNEPLSLPELTKRLTEANQRMAKFPESIKAWPFPDVLECCLVLLLIRSHFPGCLAQEMQQQAQELLQKYGNTKTYRRHCQTFCM | 0.51 | –
Gemin5 TPR-like dimerization domain R1016C (domain or fragment, human, UniProt Q8TEQ6 845-1097, looked up, Tag cut by PreScission protease; also called TPR-like R1016C; source: E. coli BL21-Rosetta (DE3) pLysS, purified (HisTrap, tag cleavage, SEC in 0.2 M NaCl); not shown: His6, N-terminal, cleaved; MBP, N-terminal, cleaved) ARSLLPLSTSLDHRSKEELHQDCLVLATAKHSRELNEDVSADVEERFHLGLFTDRATLYRMIDIEGKGHLENGHPELFHQLMLWKGDLKGVLQTAAERGELTDNLVAMAPAAGYHVWLWAVEAFAKQLCFQDQYVKAASHLLSIHKVYEAVELLKSNHFYREAIAIAKARLCPEDPVLKDLYLSWGTVLERDGHYAVAAKCYLGATCAYDAAKVLAKKGDAASLRTAAELAAIVGEDELSASLALRCAQELLL | – | 2

Now from value to binder, other results behind:

other: G5845-1508 intensity 80S/S30 [1] | Binder | stoichiometry N [2]
0.46 | Xpress-G5_(845-1508)-WT, Q8TEQ6 D1019E (protein) ARSLLPLSTSLDHRSKEELHQDCLVLATAKHSRELNEDVSADVEERFHLGLFTDRATLYRMIDIEGKGHLENGHPELFHQLMLWKGDLKGVLQTAAERGELTDNLVAMAPAAGYHVWLWAVEAFAKQLCFQDQYVKAASHLLSIHKVYEAVELLKSNHFYREAIAIAKARLRPEEPVLKDLYLSWGTVLERDGHYAVAAKCYLGATCAYDAAKVLAKKGDAASLRTAAELAAIVGEDELSASLALRCAQELLLANNWVGAQEALQLHESLQGQRLVFCLLELLSRHLEEKQLSEGKSSSSYHTWNTGTEGPFVERVTAVWKSIFSLDTPEQYQEAFQKLQNIKYPSATNNTPAKQLLLHICHDLTLAVLSQQMASWDEAVQALLRAVVRSYDSGSFTIMQEVYSAFLPDGCDHLRDKLGDHQSPATPAFKSLEAFFLYGRLYEFWWSLSRPCPNSSVWVRAGHRTLSVEPSQQLDTASTEETDPETSQPEPNRPSELDLRLTEEGERMLSTFKELFSEKHASLQNSQRTVAEVQETLAEMIRQHQKSQLCKSTANGPDKNEPEVEAEQPLCSSQSQCKEEKNEPLSLPELTKRLTEANQRMAKFPESIKAWPFPDVLECCLVLLLIRSHFPGCLAQEMQQQAQELLQKYGNTKTYRRHCQTFCM | –
0.48 | Xpress-G5_(845-1508)-WT, Q8TEQ6 A951E (protein) ARSLLPLSTSLDHRSKEELHQDCLVLATAKHSRELNEDVSADVEERFHLGLFTDRATLYRMIDIEGKGHLENGHPELFHQLMLWKGDLKGVLQTAAERGELTDNLVEMAPAAGYHVWLWAVEAFAKQLCFQDQYVKAASHLLSIHKVYEAVELLKSNHFYREAIAIAKARLRPEDPVLKDLYLSWGTVLERDGHYAVAAKCYLGATCAYDAAKVLAKKGDAASLRTAAELAAIVGEDELSASLALRCAQELLLANNWVGAQEALQLHESLQGQRLVFCLLELLSRHLEEKQLSEGKSSSSYHTWNTGTEGPFVERVTAVWKSIFSLDTPEQYQEAFQKLQNIKYPSATNNTPAKQLLLHICHDLTLAVLSQQMASWDEAVQALLRAVVRSYDSGSFTIMQEVYSAFLPDGCDHLRDKLGDHQSPATPAFKSLEAFFLYGRLYEFWWSLSRPCPNSSVWVRAGHRTLSVEPSQQLDTASTEETDPETSQPEPNRPSELDLRLTEEGERMLSTFKELFSEKHASLQNSQRTVAEVQETLAEMIRQHQKSQLCKSTANGPDKNEPEVEAEQPLCSSQSQCKEEKNEPLSLPELTKRLTEANQRMAKFPESIKAWPFPDVLECCLVLLLIRSHFPGCLAQEMQQQAQELLQKYGNTKTYRRHCQTFCM | –
